Source: patent US20240199724A1 (THELPER, published 2024)
“And” between values parts separate entries of the source, which are not always exact repeats. Equal values may be shown once.

T1: US28 of HCMV strain Ad169, on infected MRC-5 cells (human cytomegalovirus (HCMV) strain …, UniProt P69332 1-354)
T1 sequence: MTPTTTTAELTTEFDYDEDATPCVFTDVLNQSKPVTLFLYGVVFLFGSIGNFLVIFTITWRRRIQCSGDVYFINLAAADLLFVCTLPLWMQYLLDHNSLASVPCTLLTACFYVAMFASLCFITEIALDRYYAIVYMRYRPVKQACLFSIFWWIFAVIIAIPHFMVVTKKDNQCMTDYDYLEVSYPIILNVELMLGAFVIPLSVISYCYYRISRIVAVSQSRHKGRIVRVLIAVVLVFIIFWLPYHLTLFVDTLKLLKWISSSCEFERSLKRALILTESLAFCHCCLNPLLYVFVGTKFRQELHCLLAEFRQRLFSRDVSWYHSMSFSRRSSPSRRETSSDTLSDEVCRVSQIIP

T2: US28 of HCMV strain DB with C-terminal 6His tag, on CHO-US28-A1 cells (human cytomegalovirus (HCMV) strain DB, UniProt P69332 1-354)
T2 chain: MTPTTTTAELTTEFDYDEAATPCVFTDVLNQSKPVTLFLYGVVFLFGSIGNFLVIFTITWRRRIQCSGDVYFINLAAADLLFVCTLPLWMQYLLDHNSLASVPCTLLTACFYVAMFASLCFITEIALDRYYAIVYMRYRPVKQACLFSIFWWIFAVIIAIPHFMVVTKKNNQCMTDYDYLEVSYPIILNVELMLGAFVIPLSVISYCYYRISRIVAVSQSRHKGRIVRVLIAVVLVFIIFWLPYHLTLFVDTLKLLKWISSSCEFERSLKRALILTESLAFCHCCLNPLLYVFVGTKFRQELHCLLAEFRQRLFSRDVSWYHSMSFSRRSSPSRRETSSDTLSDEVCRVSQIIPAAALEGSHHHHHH

T3: mutated US28 (artificially created mutated strain) with C-terminal 6His tag, on CHO cells (human cytomegalovirus (HCMV), …, UniProt P69332 1-354)
T3 construct: also called CHO-mutated strain; mutated form of US28
T3 chain: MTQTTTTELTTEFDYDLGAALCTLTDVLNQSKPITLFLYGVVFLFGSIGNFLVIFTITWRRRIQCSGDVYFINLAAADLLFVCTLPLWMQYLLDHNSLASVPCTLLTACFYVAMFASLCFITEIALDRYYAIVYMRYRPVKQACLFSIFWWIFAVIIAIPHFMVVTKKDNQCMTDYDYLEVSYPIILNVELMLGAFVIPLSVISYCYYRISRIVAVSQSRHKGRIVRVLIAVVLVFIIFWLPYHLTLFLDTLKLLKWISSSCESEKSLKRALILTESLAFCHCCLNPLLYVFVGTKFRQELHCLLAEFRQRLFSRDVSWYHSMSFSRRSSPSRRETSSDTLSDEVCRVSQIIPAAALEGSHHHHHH

T4: US28 of HCMV strain TB40/E with C-terminal 6His tag, on CHO cells (human cytomegalovirus (HCMV) strain …, UniProt P69332 1-354)
T4 construct: also called TB40/E form of US28
T4 chain: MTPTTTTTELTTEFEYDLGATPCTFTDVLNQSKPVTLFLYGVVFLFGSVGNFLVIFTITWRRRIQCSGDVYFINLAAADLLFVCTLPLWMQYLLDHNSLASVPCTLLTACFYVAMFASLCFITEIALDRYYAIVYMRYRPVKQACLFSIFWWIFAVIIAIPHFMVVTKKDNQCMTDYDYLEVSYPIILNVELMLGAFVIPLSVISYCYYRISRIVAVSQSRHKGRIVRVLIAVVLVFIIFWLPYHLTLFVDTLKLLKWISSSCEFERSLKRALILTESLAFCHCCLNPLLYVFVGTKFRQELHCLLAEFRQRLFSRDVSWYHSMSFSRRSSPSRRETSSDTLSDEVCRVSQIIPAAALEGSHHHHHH


Tests used:
[1] = biological target: US28 of HCMV strain DB with C-terminal 6His tag, on CHO-US28-A1 cells (human cytomegalovirus (HCMV) strain DB) (UniProt P69332); experiment: flow cytometry, secondary antibody alone on CHO-US28-A1 cells
[2] = biological target: Bio-Peptide-2 (human cytomegalovirus (HCMV), 4D variant); experiment: ELISA (FIG. 5)
[3] = biological target: T1, US28 of HCMV strain Ad169, on infected …
[4] = biological target: T2, US28 of HCMV strain DB with C-terminal …; experiment: flow cytometry
[5] = biological target: T2, US28 of HCMV strain DB with C-terminal …; experiment: flow cytometry, 1:50 (w/v)
[6] = biological target: T3, mutated US28 (artificially created …); experiment: flow cytometry, CHO cells expressing the mutated US28
[7] = biological target: T2, US28 of HCMV strain DB with C-terminal …; experiment: flow cytometry, CHO cells expressing US28 of strain DB
[8] = biological target: T4, US28 of HCMV strain TB40/E with …; experiment: flow cytometry, CHO cells expressing US28 of strain TB40/E
[9] = biological target: T3, mutated US28 (artificially created …); experiment: flow cytometry, CHO cells expressing the mutated US28 (FIG. 21B)
[10] = biological target: T4, US28 of HCMV strain TB40/E with …; experiment: flow cytometry, CHO cells expressing DB or TB40/E US28 (FIG. 21C)
[11] = biological target: T4, US28 of HCMV strain TB40/E with …; experiment: flow cytometry, CHO cells expressing DB or TB40/E US28 (FIG. 21D)
[12] = biological target: T2, US28 of HCMV strain DB with C-terminal …; experiment: flow cytometry, CHO-US28 (DB) cells against control CHO cells, background subtracted

| Molecule | percent of cells bound [6] [%] | percent of cells bound [7] [%] | percent of cells bound [8] [%] | % change in absolute level of binding between the DB and TB40/E forms of US28 [10] [%] | percentage retention of binding activity between the DB and TB40/E forms of US28 [11] [%] | Binding specificity comparative to the specificity displayed by VUN100 [12] [ratio] | also measured |
| --- | --- | --- | --- | --- | --- | --- | --- |
| Goat anti-mouse IgG-Alexa 488 (antibody) |  |  |  |  |  |  | percent of cells bound [1]: 1.63% |
| US28-13-5G6-1D3 antibody (antibody) heavy: EVKLVESGGGLVQPGGSLRLACATSGFTFTDYYMSWVRQPPGKALEWLGFIRSKANGYTTEYSASVKGRFTISRDNSQSILYLQMNTLRSEDSATYYCARDERRTAWLAYWGQGTLVTVSAAKTTPPSVYPLAPGSAAQTNSMVTLGCLVKGYFPEPVTVTWNSGSLSSGVHTFPAVLQSDLYTLSSSVTVPSSTWPSETVTCNVAHPASSTKVDKKIVPRDCGCKPCICTVPEVSSVFIFPPKPKDVLTITLTPKVTCVVVDISKDDPEVQFSWFVDDVEVHTAQTQPREEQFNSTFRSVSELPIMHQDWLNGKEFKCRVNSAAFPAPIEKTISKTKGRPKAPQVYTIPPPKEQMAKDKVSLTCMITDFFPEDITVEWQWNGQPAENYKNTQPIMDTDGSYFIYSKLNVQKSNWEAGNTFTCSVLHEGLHNHHTEKSLSHSPGK light: DVLMTQTPLSLPVSLGDQASISCRSSQSIVHSNGNTYLDWYLQKPGQSPKLLIYKVSNRFSGVPDRFSGSGSGTDFTLKISRVEAEDLGVYYCFQGSHVPTWTFGGGTKLEIKRADAAPTVSIFPPSSEQLTSGGASVVCFLNNFYPKDINVKWKIDGSERQNGVLNSWTDQDSKDSTYSMSSTLTLTKDEYERHNSYTCEATHKTSTSPIVKSFNRNEC |  |  |  |  |  |  | fold binding against BSA control [2]: 27 fold and 28 fold |
| US28-13-5G6-1D3 antibody (antibody, V domains shown, also called US28-13-5G6-1D3 Ab; US28-13-5G6-1D3 rAb) VH: EVKLVESGGGLVQPGGSLRLACATSGFTFTDYYMSWVRQPPGKALEWLGFIRSKANGYTTEYSASVKGRFTISRDNSQSILYLQMNTLRSEDSATYYCARDERRTAWLAYWGQGTLVTVSA VL: DVLMTQTPLSLPVSLGDQASISCRSSQSIVHSNGNTYLDWYLQKPGQSPKLLIYKVSNRFSGVPDRFSGSGSGTDFTLKISRVEAEDLGVYYCFQGSHVPTWTFGGGTKLEIKR | 12.9 | 16.6 | 18.2 | < 10 | ~100 | 1.65 | fold binding against uninfected cells [3]: ~16 fold; fold binding against normal CHO cells [4]: > 21 fold; fold binding against US28 negative CHO cells [5]: 15 fold; fold binding against control CHO cells [9]: ~15 fold |
| US28-14-4E4-1E8 antibody (antibody, mouse IgG1, kappa, V domains shown) VH: EVKLVESGGDLVKPGGSLKLSCAASGFTFSSYAMSWVRQTPEKRLEWVASISSGGRTYYPDSVKGRFTISRDNARNILYLQMSSLRSEDTAIYYCARGGTRHSYGNGFDYWGQGTTLTVSS VL: QIVLSQSPTIMSASPGEKVTMTCSASSSVSYMHWYQQKSGTSPKRWIYDSSKLASGVPARFSGSGSGTSYSLTISSMEAEDAATYYCQQWTSNPPITFGAGTKLELKR |  |  |  |  |  | 4.6 |  |
| US28-13-1H3-1A10 antibody (antibody, mouse IgG1, kappa, V domains shown, also called 14-1H3-1A10; 14-IH3-IA10) VH: EVKLVESGGVLVKPGGSLKFSCAASGFTLSSHALSWVRQTPEKRLEWVASISSRGRTYYPDSVKGRFTVSRDNARNILYLQVSSLRSEDTAMYYCTRGGTHYSYGNGFDFWGQGTTLTVSS VL: QIVLTQSPAIMSASPGEKVTMTCSVSSSVSYMHWYQQKSGTSPKRWIYDTSKLASGVPARFSGSGSGTSYSLTISTMEAEDAATYYCQQWSNNPPITFGAGTKLELKR |  |  |  |  |  | 2.29 |  |
| US28-13-1C10-1C10 antibody (antibody, mouse IgG1, kappa, V domains shown) VH: EVKLVESGGVLVKPGGSLKFSCAASGFTFSSHALSWVRQTPEKRLEWVASISSRGRTYYPDSVKGRFTVSRDNARNILYLQVSSLRSEDTAMYYCTRGGTHYSYGNGFDFWGQGTTLTVSS VL: QIVLTQSPAIMSASPGEKVTMTCSVSSSVSYMHWYQQKSGTSPKRWIYDTSKLASGVPARFSGSGSGTSYSLTISTMEAEDAATYYCQQWSNNPPITFGAGTKLELKR |  |  |  |  |  | 1.74 |  |
| monovalent VUN100 (VHH, also called Mv VUN100; VUN100 Ab) VHH: EVQLVESGGGLVQPGGSLRLACAVSGPGLIFKFTGVAWYRRQVPGAKRGLVALITGDGATRYGDSVKGRFTVSRDIAAKRVYLEMNDLRSEDTAVYYCKTGEYWGQGTQVTVSS | 1.41 | 6.91 | 4.33 | > 35 | ≤ 60 |  | binding result [6]: no binding (tested: 50 µg/ml); specificity (fold binding against control CHO cells) [9]: < 1 fold |
| bivalent VUN100 (VHH, also called VUN100b; BvVUN100) EVQLVESGGGLVQPGGSLRLACAVSGPGLIFKFTGVAWYRRQVPGAKRGLVALITGDGATRYGDSVKGRFTVSRDIAAKRVYLEMNDLRSEDTAVYYCKTGEYWGQGTQVTVSSGGGGSGGGGSGGGGSGGGGSGGGGSGGGGSEVQLVESGGGLVQPGGSLRLACAVSGPGLIFKFTGVAWYRRQVPGAKRGLVALITGDGATRYGDSVKGRFTVSRDIAAKRVYLEMNDLRSEDTAVYYCKTGEYWGQGTQVTVSS | 2.58 | 9.24 | 5.2 | > 40 | ≤ 60 |  | fold binding against control CHO cells [9]: 2.43 fold |
